In the supplement of paper PMC10899765:

Experiments:
Conditions in all cases: 20 nM; 72 h
[1] = test system: MCF10A; test: percent viability (nuclei count relative to siNT); higher = more viable cells
Method: (§1)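 After 72 h, cells were fixed and stained with Hoechst and anti-fibrillarin, and nucleoli per nucleus were counted with CellProfiler. Values are plate-adjusted percent effect for the one-nucleolus and 5+ nucleoli phenotypes, normalised to siNT (0%) and to the positive controls siNOL11 or siKIF11 (100%), as the mean of biological triplicates. Percent viability is the nuclei count relative to siNT.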

[2] = test system: MCF10A; test: one-nucleolus phenotype percent effect (relative to siNT 0% and siNOL11 100%); higher = more cells with one nucleolus (ribosome biogenesis inhibition)
Method: as §1

[3] = test system: MCF10A; test: 5+ nucleoli phenotype percent effect (relative to siNT 0% and siKIF11 100%); higher = more cells with five or more nucleoli
Method: as §1

Row | Sequence | percent viability [1] | one-nucleolus phenotype percent effect [2] | 5+ nucleoli phenotype percent effect [3]
1 | GAACGCCUGUUCUUGCCAGGUGG [hsa-miR-614] | 72.8% | -10.6% | -0.465%
2 | GAACGCGCUUCCCUAUAGAGGGU [hsa-miR-523-3p] | 119% | -18.2% | 23.3%
3 | GAACGGCUUCAUACAGGAGUU [hsa-miR-337-5p] | 53.8% | 9.16% | -25.8%
4 | GAACUCACCCUCUGCUCCCAG [hsa-miR-6750-3p] | 99% | -8.73% | 29.7%
5 | GAAGAACUGUUGCAUUUGCCCU [hsa-miR-4511] | 121% | -30.8% | 26.2%
6 | GAAGAAUAGGAGGGACUUUGU [hsa-miR-6507-5p] | 79.1% | -12.9% | 35.1%
7 | GAAGACUUCUUGGAUUACAGGGG [hsa-miR-8087] | 112% | 2.61% | -8.56%
8 | GAAGAUGGACGUACUUU [hsa-miR-4426] | 28.5% | 31.4% | -32.9%
9 | GAAGAUGGUGCUGUGCUGAGGAA [hsa-miR-4647] | 60.7% | 22.7% | -5.89%
10 | GAAGCUCUCCCCUCCCCGCAG [hsa-miR-6796-3p] | 103% | -14.7% | 5.79%
11 | GAAGGACACUGGUGUCAACGGCU [hsa-miR-8080] | 118% | -9.1% | 19.9%
12 | GAAGGACCUGCACCUUCG [hsa-miR-6816-3p] | 35.3% | 49.8% | -36.7%
13 | GAAGGCAGCAGUGCUCCCCUGU [hsa-miR-3714] | 9.1% | 19.5% | -29.2%
14 | GAAGGCGCUUCCCUUUAGAGCG [hsa-miR-525-3p] | 42.5% | 37.2% | -16.5%
15 | GAAGGCGCUUCCCUUUGGAGU [hsa-miR-524-3p] | 70.4% | 35.1% | -9.32%
16 | GAAGUGCUUCGAUUUUGGGGUGU [hsa-miR-373-3p] | 65.4% | -22.2% | 47.5%
17 | GAAGUGUGCCGUGGUGUGUCU [hsa-miR-595] | 30.6% | 12.4% | -22%
18 | GAAGUUGCCCAUGUUAUUUUCG [hsa-miR-495-5p] | 42.2% | 1.67% | -1.1%
19 | GAAGUUGUUCGUGGUGGAUUCG [hsa-miR-382-5p] | 37.7% | 27.9% | -18.5%
20 | GAAUACGUCUGGUUGAUCC [hsa-miR-6082] | 186% | -25.8% | 67.8%
21 | GAAUACUAAGUAAAAAAUCAGUA [hsa-miR-8084] | 215% | -33.5% | 66.7%
22 | GAAUAUGGGUAUAUUAGUUUGG [hsa-miR-5583-3p] | 65.4% | -14.1% | 43.7%
23 | GAAUCGGAAAGGAGGCGCCG [hsa-miR-3610] | 93.4% | -7.32% | 19.9%

Row | Sequence | percent viability [1] | one-nucleolus phenotype percent effect [2] | 5+ nucleoli phenotype percent effect [3]
24 | GAAUGUUGCUCGGUGAACCCCU [hsa-miR-409-3p] | 35.9% | 9.98% | -31.1%
25 | GACAAUUGUUGAUCUUGGGCCU [hsa-miR-7849-3p] | 74.7% | 8.55% | -19.1%
26 | GACACAUGACCAUAAAUGCUAA [hsa-miR-4643] | 109% | -11.7% | 36.8%
27 | GACACGGGCGACAGCUGCGGCCC [hsa-miR-602] | 91.9% | -18.7% | 45.6%
28 | GACACUAGGCAUGUGAGUGAUU [hsa-miR-4704-5p] | 65% | -20.2% | 0.429%
29 | GACAGAGUGCCACUUACUGAA [hsa-miR-4797-5p] | 23.7% | 41.8% | -25.1%
30 | GACAUUCAGACUACCUG [hsa-miR-4262] | 86.4% | 6.49% | -5.77%
31 | GACCGAGAGGGCCUCGGCUGU [hsa-miR-4523] | 67.7% | -18% | 18.2%
32 | GACCUGGACAUGUUUGUGCCCAGU [hsa-miR-619] | 128% | -30.8% | 64.8%
33 | GACUAUAGAACUUUCCCCCUCA [hsa-miR-625-3p] | 104% | -5.42% | 19.1%
34 | GACUCACUCACAGGAUUGUGCA [hsa-miR-3680-5p] | 58.9% | -12% | 39.7%
35 | GACUGACACCUCUUUGGGUGAA [hsa-miR-888-3p] | 84.1% | -18.1% | 8.85%
36 | GACUGGACAAGCUGAGGAA [hsa-miR-3654] | 99.2% | -25.9% | 68.1%
37 | GAGAAAUGCUGGACUAAUCUGC [hsa-miR-5680] | 93.7% | -20.6% | 27.3%
38 | GAGACAGGUUCAUGCUGCUA [hsa-miR-4524b-3p] | 25.8% | 37.3% | -32.4%
39 | GAGACUGGGGUGGGGCC [hsa-miR-4463] | 64.8% | -14.3% | -7.37%
40 | GAGAGCAGUGUGUGUUGCCUGG [hsa-miR-2278] | 30.7% | 40.5% | -44.7%
41 | GAGAGGAACAUGGGCUCAGGACA [hsa-miR-6859-5p] | 75.5% | -24.3% | 41.6%
42 | GAGCCAGUGGUGAGACAGUGA [hsa-miR-4676-5p] | 53.3% | -15.1% | -5.34%
43 | GAGCCAGUUGGACAGGAGC [hsa-miR-575] | 129% | -23.7% | 3.98%
44 | GAGCCCCUCUCUGCUCUCCAG [hsa-miR-6769a-3p] | 92.9% | -15.3% | 9.99%
45 | GAGCUUAUUCAUAAAAGUGCAG [hsa-miR-590-5p] | 66.5% | -0.31% | -1.22%
